Measurements taken from patent US20250353911A1 (INHIBRX BIOSCIENCES, published 2025).
Blank lines part the entries; values can stand above or below the binder they belong to.

Legend:
[1] = molecular target: T1, Cynomolgus monkey serum albumin (CSA) (cynomolgus monkey, UniProt A2V9Z4 25-608); assay: ELISA on coated cynomolgus monkey albumin, anti-human Fc HRP, A650, one site-total binding fit
T1 construct: Bought protein (Abcam); also called cynomolgus monkey albumin
Description: (§1) Medisorp plates were coated with albumin protein at 2 μg/ml, 50 μl/well at 4° C. overnight (human, murine, and rat albumin-Sigma, cynomolgus monkey albumin-Abcam). 1× Fish Gelatin (blocking agent, Bethyl Laboratories) was added to albumin-coated wells followed by a 1 hour incubation at RT. Titrations of sdAb fusion proteins (starting at 100 nM, across 1:3 or down 1:4) were added and incubated for 1 hour at RT. Plates were washed 3 times with 0.1% D-PBST, and then anti-human Fc HRP antibody (1:2000 in 0.1% D-PBST, Jackson) was added and incubated for 30 minutes at RT. Plates were washed 3 times with 0.1% D-PBST, and then TMB substrate was added. Absorbance at 650 nm was read on a plate reader (Molecular Devices) and data were plotted using equation one site-total binding (Model: Y=Bmax*X/(Kd+X)+NS*X+Background, GraphPad Prism).

[2] = molecular target: T2, Murine serum albumin (MSA) (mouse, UniProt P07724 25-608); assay: ELISA on coated murine albumin, anti-human Fc HRP, A650, one site-total binding fit
T2 construct: Bought protein (Sigma); also called murine albumin; mouse albumin
Description: as §1

[3] = molecular target: T3, Human serum albumin (HSA) (human, UniProt P02768 25-609); assay: ELISA on coated human albumin, anti-human Fc HRP, A650, one site-total binding fit
T3 construct: also called human albumin; recombinant human albumin
Description: as §1

[4] = molecular target: T4, Rat serum albumin (RSA) (rat, UniProt P02770 25-608); assay: ELISA on coated rat albumin, anti-human Fc HRP, A650, one site-total binding fit
T4 construct: Bought protein (Sigma); also called rat albumin
Description: as §1

[5] = molecular target: T1, Cynomolgus monkey serum albumin (CSA); assay: ELISA, albumin coated, sdAb fusion titrated, anti-human Fc HRP
Description: as §1

[6] = molecular target: T3, Human serum albumin (HSA); assay: as above
Description: as §1

[7] = molecular target: T4, Rat serum albumin (RSA); assay: as above
Description: as §1

[8] = molecular target: T2, Murine serum albumin (MSA); assay: as above
Description: as §1

[9] = molecular target: T3, Human serum albumin (HSA); assay: ELISA on coated human albumin, pH 7.4, HRP detection antibody, A450
Description: (§2) 96-well ELISA plates were coated with albumin protein in PBS overnight at 4° C., washed with PBS-T and then blocked with 5% milk powder in PBS-T for 1 h at room temperature. Serial dilutions of test articles were prepared in PBS pH 7.4 or a buffer containing 20 mM His, 150 mM NaCl, pH 5.5 and added to the plates. Plates were incubated for 1 h at room temperature. After the incubation cells were washed in the respective buffer and then incubated for 30 min at room temperature with a HRP-conjugated antibody detecting the polypeptides. Plates were washed in their respective buffers and TMB substrate was added and color allowed to develop. TMB substrate was stopped with an equal volume of stop solution (1M H₂SO₄). Absorbance at 450 nm was measured with a 96 well plate reader.

[10] = molecular target: T5, human FcRn extracellular domain (ECD) fused to a transmembrane domain and an intracellular citrine, with … (human); assay: flow cytometry, CHO cells transiently expressing human FcRn ECD-TM-citrine and B2M, pH 6, AF647 detection antibody
T5 construct: also called human FcRn overexpressed on CHO cells; FcRn transfected CHO cells
Description: (§3) Binding of anti-FcRn VHH polypeptides to human FcRn at neutral (7.4) or endosomal (6) pH was tested by flow cytometry using a CHO-based overexpression system or isolated human peripheral blood mononuclear cells (PBMC).
(§4) CHO cells were plated in 96-well plates at 50,000 cells per well and resuspended in PBS, pH 7.4 or a buffer containing 20 mM His, 150 mM NaCl, pH 6. Serial dilutions of test articles were prepared at 2× the final concentration in the buffers described above (pH 7.4 or pH 6) and added to the cell suspensions. Plates were incubated for 60 minutes at 4° C. After the incubation cells were washed in the respective buffer and then incubated for 30 minutes at 4° C. with a fluorescently labeled (AF647) antibody detecting the VHH polypeptides. Binding of the detection antibody to FcRn on transfected cells (citrine positive) was measured after a final wash using an iQue Screener (Sartorius).

[11] = molecular target: T5, human FcRn extracellular domain (ECD) …; assay: as above; remark: listed apart in the source
Description: as §3, §4

[12] = molecular target: T6, human FcRn on primary human monocytes (PBMC) (human, UniProt P55899 24-365; P16213 21-119); assay: flow cytometry, fixed and permeabilized human PBMC, gated monocytes, pH 6, AF647 detection antibody
T6 construct: Endogenous FcRn (with endogenous beta-2 microglobulin) in fixed and permeabilized human PBMC; also called FcRn-expressing human monocytes; FcRn on PBMC subpopulations
Description: (§5) Isolated human PBMC were plated in 96-well plates at 120,000 cells per well and washed with PBS, pH 7.4. Cells were stained with Zombie Aqua to exclude dead cells and with specific fluorescently labeled antibodies against surface lineage markers (CD14, CD16, CD3, CD56, CD19 and HLA-DR) to allow gating on different PBMC subpopulations. After the surface marker staining, cells were fixed and permeabilized using a Foxp3/Transcription Factor Fixation/Permeabilization kit (eBioscience™) according to the manufacturer's recommended protocol. Cells were then resuspended in the buffers described above to generate pH 7.4 or pH 6 conditions and test article staining was carried out as described for CHO cells. After the final wash, binding to FcRn on PBMC subpopulations (Monocytes, B cells or T cells) was measured on a Novocyte-Quanteon Flow Cytometer (Agilent).

[13] = molecular target: T5, human FcRn extracellular domain (ECD) …; assay: flow cytometry, CHO cells transiently expressing human FcRn ECD-TM-citrine and B2M, pH 7.4, AF647 detection antibody
Description: as §3, §4

[14] = molecular target: T5, human FcRn extracellular domain (ECD) …; assay: as above; remark: listed apart in the source
Description: as §3, §4

[15] = molecular target: T3, Human serum albumin (HSA); assay: ELISA on coated human albumin, pH 5.5, HRP detection antibody, A450
Description: as §2

[16] = molecular target: T3, Human serum albumin (HSA); assay: as above; remark: listed apart in the source
Description: as §2

[17] = molecular target: T6, human FcRn on primary human monocytes …; assay: flow cytometry, fixed and permeabilized human PBMC, gated monocytes, pH 7.4, AF647 detection antibody
Description: as §5

[18] = molecular target: T2, Murine serum albumin (MSA); assay: ELISA on coated murine albumin, anti-human Fc HRP, A650, one site-total binding fit; remark: listed apart in the source
Description: as §1

[19] = molecular target: T4, Rat serum albumin (RSA); assay: ELISA on coated rat albumin, anti-human Fc HRP, A650, one site-total binding fit; remark: listed apart in the source
Description: as §1

[20] = molecular target: T3, Human serum albumin (HSA); assay: ELISA on coated human albumin, anti-human Fc HRP, A650, one site-total binding fit; remark: listed apart in the source
Description: as §1

[21] = molecular target: T7, Mouse Fc-tagged human albumin domain III (human, UniProt P02768 405-609, limits assumed); assay: biolayer interferometry, mouse Fc-tagged human albumin domain III (10 ug/ml) on anti-mouse IgG Fc biosensor, pH 5
T7 construct: also called albumin domain 3 (mouse Fc tagged); albumin domain 3; not shown: mouse Fc tag

[22] = molecular target: T1, Cynomolgus monkey serum albumin (CSA); assay: ELISA on coated cynomolgus monkey albumin, anti-human Fc HRP, A650, one site-total binding fit; remark: listed apart in the source
Description: as §1

[23] = molecular target: T8, human FcRn/B2m heterodimer protein (human, UniProt P55899 24-297; P61769 21-119, limits assumed); assay: ELISA on coated human FcRn/B2m heterodimer, pH 7.4, HRP detection antibody, A450
T8 construct: also called FcRn (ELISA)
Description: 96-well ELISA plates were coated with human FcRn/B2m heterodimer protein in PBS overnight at 4° C., washed with PBST and then blocked with 3% BSA in PBST for 1 h at RT. Serial dilutions of test articles were prepared in PBST pH 7.4 and added to the plates. Plates were incubated for 1 h at room temperature. After the incubation cells were washed in the PBST and then incubated for 1 h at room temperature with a horse radish peroxidase (HRP)-conjugated antibody detecting the polypeptides. Plates were washed with PBS-T followed by addition of TMB substrate and color allowed to develop. TMB substrate was stopped with an equal volume of stop solution (1M H₂SO₄). Absorbance at 450 nm was measured with a 96 well plate reader (Emax, Molecular Devices). All data were plotted and analyzed using GraphPad Prism analysis software.

[24] = molecular target: T5, human FcRn extracellular domain (ECD) …; assay: flow cytometry, HEK 293 cells transiently expressing human FcRn ECD-TM-citrine and B2M, pH 6; blocked ligand: biotinylated human IgG at 1 µM, detected with streptavidin-AF647
Description: 50,000 transiently transfected HEK 293 cells were plated in 96-well plates and resuspended in 20 mM His, 150 mM NaCl, pH 6. Serial dilutions of test articles were prepared at 2× the final concentration in the buffer described above and added to the cell suspensions. Plates were incubated for 60 minutes at 4° C. […] Cells were then washed in the buffer described above and subsequently incubated for 30 minutes at 4° C. with a fluorescently labeled (AF647) streptavidin to detect IgG binding to FcRn. Binding of streptavidin to cells expressing FcRn (citrine positive) was measured after a final wash using an iQue Screener (Sartorius). The data were plotted and analyzed using GraphPad Prism analysis software.

T1 sequence (A2V9Z4 25-608): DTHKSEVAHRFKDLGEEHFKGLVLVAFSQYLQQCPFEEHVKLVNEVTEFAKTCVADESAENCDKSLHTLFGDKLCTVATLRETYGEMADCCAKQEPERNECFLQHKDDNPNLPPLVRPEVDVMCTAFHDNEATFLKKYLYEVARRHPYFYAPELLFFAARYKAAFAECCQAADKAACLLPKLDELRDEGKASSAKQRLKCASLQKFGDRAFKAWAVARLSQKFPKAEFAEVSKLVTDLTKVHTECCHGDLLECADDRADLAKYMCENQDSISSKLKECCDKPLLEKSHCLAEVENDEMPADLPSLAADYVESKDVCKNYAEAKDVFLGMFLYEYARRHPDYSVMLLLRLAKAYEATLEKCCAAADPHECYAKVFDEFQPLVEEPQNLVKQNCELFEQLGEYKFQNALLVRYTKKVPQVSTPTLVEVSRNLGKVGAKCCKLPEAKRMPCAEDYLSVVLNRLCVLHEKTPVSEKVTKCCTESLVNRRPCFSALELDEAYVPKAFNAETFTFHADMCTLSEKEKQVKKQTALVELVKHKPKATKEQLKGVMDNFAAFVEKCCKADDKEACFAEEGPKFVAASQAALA
T4 sequence (P02770 25-608): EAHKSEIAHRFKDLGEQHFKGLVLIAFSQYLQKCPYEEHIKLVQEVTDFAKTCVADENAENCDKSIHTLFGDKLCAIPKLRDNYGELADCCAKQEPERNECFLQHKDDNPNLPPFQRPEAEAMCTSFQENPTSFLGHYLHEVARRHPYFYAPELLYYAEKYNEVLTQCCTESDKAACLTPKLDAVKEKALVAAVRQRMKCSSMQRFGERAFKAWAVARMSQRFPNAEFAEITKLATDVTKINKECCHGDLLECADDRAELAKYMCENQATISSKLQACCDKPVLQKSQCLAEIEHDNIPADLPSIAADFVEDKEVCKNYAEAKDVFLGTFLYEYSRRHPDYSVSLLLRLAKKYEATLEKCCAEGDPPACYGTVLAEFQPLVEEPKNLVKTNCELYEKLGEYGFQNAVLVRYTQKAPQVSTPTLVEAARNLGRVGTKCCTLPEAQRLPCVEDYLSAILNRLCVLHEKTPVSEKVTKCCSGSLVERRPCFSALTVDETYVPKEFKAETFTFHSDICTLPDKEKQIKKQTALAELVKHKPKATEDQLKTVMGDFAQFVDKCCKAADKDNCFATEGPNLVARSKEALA
T3 sequence (P02768 25-609): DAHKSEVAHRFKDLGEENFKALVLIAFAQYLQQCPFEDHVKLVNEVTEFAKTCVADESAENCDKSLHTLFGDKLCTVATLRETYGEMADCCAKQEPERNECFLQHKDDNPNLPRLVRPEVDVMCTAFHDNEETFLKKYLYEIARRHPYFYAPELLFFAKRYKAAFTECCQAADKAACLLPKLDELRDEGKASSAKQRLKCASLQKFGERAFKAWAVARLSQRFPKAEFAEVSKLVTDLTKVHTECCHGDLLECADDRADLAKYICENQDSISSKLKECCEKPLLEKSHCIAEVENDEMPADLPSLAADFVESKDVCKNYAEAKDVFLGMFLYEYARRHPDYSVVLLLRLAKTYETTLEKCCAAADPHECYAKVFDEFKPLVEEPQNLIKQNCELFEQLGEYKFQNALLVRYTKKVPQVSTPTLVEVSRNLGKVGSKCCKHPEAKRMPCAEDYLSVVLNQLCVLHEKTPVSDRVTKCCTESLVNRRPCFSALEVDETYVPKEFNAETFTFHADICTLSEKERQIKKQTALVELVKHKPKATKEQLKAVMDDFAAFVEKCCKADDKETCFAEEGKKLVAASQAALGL
T7 sequence (P02768 405-609 limits assumed): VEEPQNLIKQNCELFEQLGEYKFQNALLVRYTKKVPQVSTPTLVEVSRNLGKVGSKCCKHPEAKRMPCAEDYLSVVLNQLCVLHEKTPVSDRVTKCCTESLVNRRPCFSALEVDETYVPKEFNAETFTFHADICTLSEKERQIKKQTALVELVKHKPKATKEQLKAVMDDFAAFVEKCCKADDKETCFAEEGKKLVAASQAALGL

Kd [1]: 0.189 nM
Kd [2]: 0.207 nM
Kd [3]: 0.195 nM
Kd [4]: 0.234 nM
Kd [5]: < 0.3 nM
maximal binding [5]: > 90%
Kd [6]: < 0.3 nM
maximal binding [6]: > 90%
Kd [7]: < 0.3 nM
maximal binding [7]: > 90%
Kd [8]: < 0.3 nM
maximal binding [8]: > 90%
B1: cx5009 (hz4A01v51-NNT-hFc) (Fc fusion)
chain: EVQLVESGGGEVQPGGSLRLSCAASGFTFSTSGMVWVRQAPGKGLEWVSTISDDARITVYAESVKGRFTISRDNAKNTVYLQMNSLRAEDTAVYYCATYRAGSRIGSYEDYYRGQGTLVTVKPGGGGPSVFLFPPKPKDTLMISRTPEVTCVVVDVSHEDPEVKFNWYVDGVEVHNAKTKPREEQYNSTYRVVSVLTVLHQDWLNGKEYKCKVSNKALPAPIEKTISKAKGQPREPQVYTLPPSRDELTKNQVNLTCLVKGFYPSDIAVEWESNGQPENNYKTTPPVLDSDGSFFLNSTLTVDKSRWQQGNVFSCSVMHEALHNHYTQKSLSLSPGSGGGGSGGGGS
notes: also called humanized hz4A01v51; hx4A01v51

EC50 (read off the curve) [9]: ~0.3 nM
EC50 (read off the curve) [10]: ~0.4 nM
EC50 (read off the curve) [11]: ~0.4 nM
EC50 (read off the curve) [12]: ~5 nM
EC50 (read off the curve) [13]: ~0.5 nM
EC50 (read off the curve) [14]: ~0.5 nM
EC50 (read off the curve) [15]: ~0.06 nM
EC50 (read off the curve) [16]: ~0.06 nM
EC50 (read off the curve) [17]: ~4 nM
B2: cx11558 (B10a.v2.1 VHH x hz4A01v51 VHH) (bispecific antibody)
chain: EVQLLESGGGEVQPGGSLRLSCAASGSIANVDLMAWHRQAPGKQREPIAVINDAGSTYYAESVKGRFTISRDNAKNTLYLQMNSLRAEDTAVYYCNTATWRGGERYADWGQGTLVTVKPGSGGGSEVQLVESGGGEVQPGGSLRLSCAASGFTFSTSGMVWVRQAPGKGLEWVSTISDDARITVYAESVKGRFTISRDNAKNTVYLQMNSLRAEDTAVYYCATYRAGSRIGSYEDYYRGQGTLVTVKPGG

Kd [1]: 0.162 nM
Kd [2]: 0.193 nM
Bmax [18]: 1.26 A650
Kd [18]: 0.114 nM
Kd [3]: 0.171 nM
Bmax [19]: 1.24 A650
Kd [19]: 0.144 nM
Kd [4]: 0.182 nM
Bmax [20]: 1.34 A650
Kd [20]: 0.105 nM
binding result [21]: no binding
Bmax [22]: 1.27 A650
Kd [22]: 0.113 nM
B3: 4A01-NNT-hFc (Fc fusion)
chain: QVQLQESGGGLVQPGGSLRLSCAASGFAFSTSGMVWVRQATGKGLEWVSTISDDSRIIRYADSVNGRFTISRDNAENTLYLLMNSLKPEDTAVYYCATYRAGSRIGSYEDYYRGQGTQVTVSSGGPSVFLFPPKPKDTLMISRTPEVTCVVVDVSHEDPEVKFNWYVDGVEVHNAKTKPREEQYNSTYRVVSVLTVLHQDWLNGKEYKCKVSNKALPAPIEKTISKAKGQPREPQVYTLPPSRDELTKNQVNLTCLVKGFYPSDIAVEWESNGQPENNYKTTPPVLDSDGSFFLNSTLTVDKSRWQQGNVFSCSVMHEALHNHYTQKSLSLSPG
notes: Monomeric sdAb-Fc fusion (Fc S364N, Y407N, K409T = NNT); also called 1m4A01; anti-albumin sdAb 4A01

EC50 (read off the curve) [23]: ~0.07 nM
IC50 (read off the curve) [24]: ~3 nM
B4: cx11385 (B10a.v1 VHH x B10a.v1 VHH x hz4A01v51 VHH) (bispecific antibody)
chain: EVQLLESGGGEVQPGGSLRLSCTASGSIANVDMMAWHRQAPGKQREPIAVINDGGSTSYADSVKGRFTISRDNAKNTLYLQMSSLRAEDTAVYYCNTATWRGGERYADWGQGTLVTVKPGSGGGSEVQLLESGGGEVQPGGSLRLSCTASGSIANVDMMAWHRQAPGKQREPIAVINDGGSTSYADSVKGRFTISRDNAKNTLYLQMSSLRAEDTAVYYCNTATWRGGERYADWGQGTLVTVKPGSGGGSEVQLVESGGGEVQPGGSLRLSCAASGFTFSTSGMVWVRQAPGKGLEWVSTISDDARITVYAESVKGRFTISRDNAKNTVYLQMNSLRAEDTAVYYCATYRAGSRIGSYEDYYRGQGTLVTVKPGG
